Test results taken from the supplement of paper PMC9112550, “Optimization of the antimicrobial peptide Bac7 by deep mutational scanning” (BMC Biology, 2022).

These sequences were tested on Escherichia coli TOP10 (assay: shrunken log2 fold change of peptide-encoding DNA abundance (4.5 h post-induction vs induction); higher = less antimicrobial activity (less host growth inhibition)). Settings: time post-induction: 4.5 h; library: site-saturation at positions 5, 18, 19, 20.
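Note: peptides expressed intracellularly from a pBAD plasmid library in pooled LB shake-flask culture, induced with 0.3% L-arabinose, DNA abundance read by NGS, three biological replicates, DESeq2 with apeglm shrinkage.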

Sequence | shrunken log2 fold change
RRIRRRPPRLPRPRPRPHQRPRP | 0.14
RRIRRRPPRLPRPRPRPHQVPRP | 0.1
RRIRRRPPRLPRPRPRPHQYPRP | 2.56
RRIRRRPPRLPRPRPRPHRFPRP | -0.0954
RRIRRRPPRLPRPRPRPHRTPRP | 0.102
RRIRRRPPRLPRPRPRPHSCPRP | 0.0404
RRIRRRPPRLPRPRPRPHTMPRP | -0.0621
RRIRRRPPRLPRPRPRPHWEPRP | 0.127
RRIRRRPPRLPRPRPRPHWRPRP | 0.0155
RRIRRRPPRLPRPRPRPHYSPRP | -0.538
RRIRRRPPRLPRPRPRPIAGPRP | -0.12
RRIRRRPPRLPRPRPRPICIPRP | 0.232
RRIRRRPPRLPRPRPRPICMPRP | 0.296
RRIRRRPPRLPRPRPRPIDKPRP | -0.0465
RRIRRRPPRLPRPRPRPIDMPRP | 0.0233
RRIRRRPPRLPRPRPRPIEQPRP | 0.0304
RRIRRRPPRLPRPRPRPIFAPRP | 0.355
RRIRRRPPRLPRPRPRPIFFPRP | 0.261
RRIRRRPPRLPRPRPRPIFRPRP | 0.584
RRIRRRPPRLPRPRPRPIHNPRP | -0.329
RRIRRRPPRLPRPRPRPIIGPRP | 0.327
RRIRRRPPRLPRPRPRPIITPRP | -0.253
RRIRRRPPRLPRPRPRPILIPRP | 0.118
RRIRRRPPRLPRPRPRPINCPRP | -0.129
RRIRRRPPRLPRPRPRPINLPRP | -0.00491

Sequence | shrunken log2 fold change
RRIRRRPPRLPRPRPRPINQPRP | 0.0137
RRIRRRPPRLPRPRPRPINYPRP | -0.196
RRIRRRPPRLPRPRPRPIPVPRP | 0.265
RRIRRRPPRLPRPRPRPIRNPRP | 0.113
RRIRRRPPRLPRPRPRPIRTPRP | 0.4
RRIRRRPPRLPRPRPRPISNPRP | -0.269
RRIRRRPPRLPRPRPRPIVGPRP | 0.0287
RRIRRRPPRLPRPRPRPIVNPRP | -0.205
RRIRRRPPRLPRPRPRPIVTPRP | 0.0446
RRIRRRPPRLPRPRPRPIWIPRP | -0.32
RRIRRRPPRLPRPRPRPIYAPRP | 3.39
RRIRRRPPRLPRPRPRPIYTPRP | -0.176
RRIRRRPPRLPRPRPRPKCGPRP | 0.0229
RRIRRRPPRLPRPRPRPKDIPRP | -0.193
RRIRRRPPRLPRPRPRPKEAPRP | 0.0205
RRIRRRPPRLPRPRPRPKEFPRP | 0.0689
RRIRRRPPRLPRPRPRPKFQPRP | -0.00642
RRIRRRPPRLPRPRPRPKGTPRP | 0.25
RRIRRRPPRLPRPRPRPKHFPRP | 0.3
RRIRRRPPRLPRPRPRPKHWPRP | 0.334
RRIRRRPPRLPRPRPRPKILPRP | -0.199
RRIRRRPPRLPRPRPRPKKLPRP | 0.166
RRIRRRPPRLPRPRPRPKLMPRP | 0.178
RRIRRRPPRLPRPRPRPKMAPRP | 0.201
RRIRRRPPRLPRPRPRPKMFPRP | -0.131

Sequence | shrunken log2 fold change
RRIRRRPPRLPRPRPRPKMLPRP | 0.161
RRIRRRPPRLPRPRPRPKMRPRP | 0.733
RRIRRRPPRLPRPRPRPKMWPRP | 0.216
RRIRRRPPRLPRPRPRPKPIPRP | 0.357
RRIRRRPPRLPRPRPRPKPVPRP | 0.191
RRIRRRPPRLPRPRPRPKRIPRP | 0.191
RRIRRRPPRLPRPRPRPKRYPRP | 0.00167
RRIRRRPPRLPRPRPRPKSGPRP | -0.0499
RRIRRRPPRLPRPRPRPKSVPRP | 0.0439
RRIRRRPPRLPRPRPRPKSWPRP | 0.249
RRIRRRPPRLPRPRPRPKSYPRP | 0.171
RRIRRRPPRLPRPRPRPKTDPRP | 0.163
RRIRRRPPRLPRPRPRPKTMPRP | 0.348
RRIRRRPPRLPRPRPRPKTTPRP | 0.0923
RRIRRRPPRLPRPRPRPKVMPRP | 0.16
RRIRRRPPRLPRPRPRPKVTPRP | -0.131
RRIRRRPPRLPRPRPRPKWFPRP | -0.0159
RRIRRRPPRLPRPRPRPKWHPRP | 0.593
RRIRRRPPRLPRPRPRPKYEPRP | 0.811
RRIRRRPPRLPRPRPRPKYLPRP | -0.042
RRIRRRPPRLPRPRPRPKYSPRP | -0.124
RRIRRRPPRLPRPRPRPLACPRP | 0.491
RRIRRRPPRLPRPRPRPLAMPRP | -0.0111
RRIRRRPPRLPRPRPRPLCDPRP | 0.422
RRIRRRPPRLPRPRPRPLCYPRP | -0.236

Sequence | shrunken log2 fold change
RRIRRRPPRLPRPRPRPLDPPRP | 0.5
RRIRRRPPRLPRPRPRPLFMPRP | 0.0797
RRIRRRPPRLPRPRPRPLGGPRP | 0.376
RRIRRRPPRLPRPRPRPLGMPRP | 0.471
RRIRRRPPRLPRPRPRPLHPPRP | 0.437
RRIRRRPPRLPRPRPRPLIIPRP | -0.376
RRIRRRPPRLPRPRPRPLIVPRP | -0.0866
RRIRRRPPRLPRPRPRPLKAPRP | 0.785
RRIRRRPPRLPRPRPRPLKDPRP | -0.152
RRIRRRPPRLPRPRPRPLLGPRP | 0.504
RRIRRRPPRLPRPRPRPLLVPRP | 0.329
RRIRRRPPRLPRPRPRPLQVPRP | 0.000182
RRIRRRPPRLPRPRPRPLRFPRP | 0.836
RRIRRRPPRLPRPRPRPLRIPRP | 0.724
RRIRRRPPRLPRPRPRPLTWPRP | 0.845
RRIRRRPPRLPRPRPRPLVYPRP | -0.325
RRIRRRPPRLPRPRPRPLYCPRP | -0.115
RRIRRRPPRLPRPRPRPMAGPRP | 0.111
RRIRRRPPRLPRPRPRPMCHPRP | -0.191
RRIRRRPPRLPRPRPRPMCVPRP | -0.0364
RRIRRRPPRLPRPRPRPMDDPRP | 0.211
RRIRRRPPRLPRPRPRPMDEPRP | 0.0223
RRIRRRPPRLPRPRPRPMDMPRP | 0.0833
RRIRRRPPRLPRPRPRPMDPPRP | 0.139
RRIRRRPPRLPRPRPRPMDTPRP | 0.229

Sequence | shrunken log2 fold change
RRIRRRPPRLPRPRPRPMDWPRP | 0.516
RRIRRRPPRLPRPRPRPMEKPRP | 0.096
RRIRRRPPRLPRPRPRPMFAPRP | 0.24
RRIRRRPPRLPRPRPRPMFQPRP | 0.155
RRIRRRPPRLPRPRPRPMGGPRP | 0.083
RRIRRRPPRLPRPRPRPMHWPRP | 0.148
RRIRRRPPRLPRPRPRPMIAPRP | 0.121
RRIRRRPPRLPRPRPRPMISPRP | 0.044
RRIRRRPPRLPRPRPRPMMWPRP | 0.487
RRIRRRPPRLPRPRPRPMNFPRP | 0.154
RRIRRRPPRLPRPRPRPMNSPRP | -0.101
RRIRRRPPRLPRPRPRPMRHPRP | 1.18
RRIRRRPPRLPRPRPRPMRYPRP | 0.236
RRIRRRPPRLPRPRPRPMTWPRP | -0.154
RRIRRRPPRLPRPRPRPMVVPRP | 0.00307
RRIRRRPPRLPRPRPRPMYDPRP | -0.267
RRIRRRPPRLPRPRPRPMYKPRP | -0.0524
RRIRRRPPRLPRPRPRPMYPPRP | -0.197
RRIRRRPPRLPRPRPRPNAIPRP | -0.116
RRIRRRPPRLPRPRPRPNANPRP | 0.58
RRIRRRPPRLPRPRPRPNCHPRP | -0.0432
RRIRRRPPRLPRPRPRPNCNPRP | -0.0828
RRIRRRPPRLPRPRPRPNDEPRP | -0.0407
RRIRRRPPRLPRPRPRPNDLPRP | -0.0791
RRIRRRPPRLPRPRPRPNDTPRP | -0.115

Sequence | shrunken log2 fold change
RRIRRRPPRLPRPRPRPNECPRP | 0.0616
RRIRRRPPRLPRPRPRPNEEPRP | 0.0468
RRIRRRPPRLPRPRPRPNEIPRP | -0.0559
RRIRRRPPRLPRPRPRPNHQPRP | -0.0677
RRIRRRPPRLPRPRPRPNIDPRP | -0.0882
RRIRRRPPRLPRPRPRPNIEPRP | 0.0519
RRIRRRPPRLPRPRPRPNKFPRP | -0.246
RRIRRRPPRLPRPRPRPNKSPRP | -0.0615
RRIRRRPPRLPRPRPRPNNKPRP | -0.24
RRIRRRPPRLPRPRPRPNPEPRP | 0.302
RRIRRRPPRLPRPRPRPNPRPRP | 1.11
RRIRRRPPRLPRPRPRPNQMPRP | 0.388
RRIRRRPPRLPRPRPRPNRIPRP | 0.0217
RRIRRRPPRLPRPRPRPNRNPRP | 0.0469
RRIRRRPPRLPRPRPRPNRSPRP | 0.339
RRIRRRPPRLPRPRPRPNRYPRP | -0.365
RRIRRRPPRLPRPRPRPNSLPRP | -0.652
RRIRRRPPRLPRPRPRPNSWPRP | -0.0571
RRIRRRPPRLPRPRPRPNVAPRP | 0.304
RRIRRRPPRLPRPRPRPNWAPRP | 0.164
RRIRRRPPRLPRPRPRPNWQPRP | 0.00842
RRIRRRPPRLPRPRPRPNYGPRP | 0.00704
RRIRRRPPRLPRPRPRPNYKPRP | -0.232
RRIRRRPPRLPRPRPRPPAFPRP | 1.08
RRIRRRPPRLPRPRPRPPAPPRP | 1.13
